Data published in patent US20220324922A1.

Target: GluN2B-containing NMDA receptor (GluN1a/GluN2B)
Assay: cell-based or functional assay

B1: Con-G-like APP (cAPP) (peptide)
peptide: ADTDYADGSEDKVVE
- inhibition of receptor currents, two-electrode voltage clamp, Xenopus oocytes: < 30%
